Assay results reported in paper PMC10786891, “Massively parallel profiling of RNA-targeting CRISPR-Cas13d”.

Target: T1, EsCas13d, nuclease-dead (Eubacterium siraeum, UniProt B0MS50, R295A;H300A;R849A;H854A)
T1 sequence: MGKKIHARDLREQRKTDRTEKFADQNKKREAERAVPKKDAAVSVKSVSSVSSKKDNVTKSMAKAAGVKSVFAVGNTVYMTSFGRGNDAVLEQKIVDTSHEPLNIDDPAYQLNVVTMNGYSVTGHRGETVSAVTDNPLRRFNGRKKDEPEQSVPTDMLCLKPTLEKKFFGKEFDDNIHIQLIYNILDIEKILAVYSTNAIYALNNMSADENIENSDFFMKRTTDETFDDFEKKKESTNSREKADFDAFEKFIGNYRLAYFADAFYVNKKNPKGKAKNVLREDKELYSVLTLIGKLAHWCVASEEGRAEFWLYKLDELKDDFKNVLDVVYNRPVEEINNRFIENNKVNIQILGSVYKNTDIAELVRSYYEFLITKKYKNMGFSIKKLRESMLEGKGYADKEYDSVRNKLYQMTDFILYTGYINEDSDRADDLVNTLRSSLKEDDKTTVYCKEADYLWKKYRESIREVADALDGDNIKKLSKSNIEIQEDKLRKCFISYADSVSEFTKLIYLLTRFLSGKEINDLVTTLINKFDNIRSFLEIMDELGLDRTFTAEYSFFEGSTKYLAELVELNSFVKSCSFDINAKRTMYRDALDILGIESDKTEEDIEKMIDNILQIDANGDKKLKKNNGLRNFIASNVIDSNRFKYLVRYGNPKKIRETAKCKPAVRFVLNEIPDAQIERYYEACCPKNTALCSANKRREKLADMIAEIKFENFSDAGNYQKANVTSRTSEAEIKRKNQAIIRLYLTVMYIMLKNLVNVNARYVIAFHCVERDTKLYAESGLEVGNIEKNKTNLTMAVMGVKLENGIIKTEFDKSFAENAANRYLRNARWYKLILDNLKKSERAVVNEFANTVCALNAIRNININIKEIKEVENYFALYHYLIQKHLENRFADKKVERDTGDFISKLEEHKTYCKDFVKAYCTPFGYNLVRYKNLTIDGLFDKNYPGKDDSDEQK
Test: crRNA (strand 1, pre-loaded); Mg2+; 40 mM Tris-HCl pH 7.5, 150 mM NaCl, 6 mM MgCl2, 1 mM DTT, 0.1% Tween-20, 0.2 mg/ml BSA; 25 C; 10 min per concentration, then washed
Conditions: tags: His6-TwinStrep-SUMO cleaved; N-terminal SNAP kept (SNAP-Surface 488); label: 3' end held by stalled T7 RNA polymerase

B1: target 1 insU 3' of 20,insG 3' of 9 (mixed)
RNA 1: CACCCGUGCAAAAAUGCAGGGGUCUAAAACUGAGCGGAUAACCUCUCUAUGG
RNA 2: GGGAAUGGAUCCACAUCUACGAAUUCGUACCAUUAGAGAGGUUAGUCCGCUCACCGAGAUCGGAAGAGCACACGU
Kd: 29 ± 4 nM

B2: target 1 insA 3' of 7,insG 3' of 2 (mixed)
RNA 1: CACCCGUGCAAAAAUGCAGGGGUCUAAAACUGAGCGGAUAACCUCUCUAUGG
RNA 2: GGGAAUGGAUCCACAUCUACGAAUUCGUACCAUAGAGAGGUUAUCACGCUCGACCGAGAUCGGAAGAGCACACGU
Kd: 7.4 ± 0.7 nM

B3: target 1 insU 3' of 12,insG 3' of 1 (mixed)
RNA 1: CACCCGUGCAAAAAUGCAGGGGUCUAAAACUGAGCGGAUAACCUCUCUAUGG
RNA 2: GGGAAUGGAUCCACAUCUACGAAUUCGUACCAUAGAGAGGUUUAUCCGCUCAGCCGAGAUCGGAAGAGCACACGU
Kd: 7.3 ± 0.7 nM

B4: target 2 MT 5'PFS CUU 3'PFS UUG (mixed)
RNA 1: CACCCGUGCAAAAUUGCAGGGGUCUAAAACCUUCUCCAAAUUGUUUCAUCCU
RNA 2: GGGAAUGGAUCCACAUCUACGAAUUCCUUAGGAUGAAACAAUUUGGAGAAGUUGAGAUCGGAAGAGCACACGU
Kd: 6 ± 0.7 nM

B5: target 2 MT 5'PFS CUU 3'PFS UUA (mixed)
RNA 1: CACCCGUGCAAAAUUGCAGGGGUCUAAAACCUUCUCCAAAUUGUUUCAUCCU
RNA 2: GGGAAUGGAUCCACAUCUACGAAUUCCUUAGGAUGAAACAAUUUGGAGAAGUUAAGAUCGGAAGAGCACACGU
Kd: 5 ± 0.5 nM

B6: target 2 MT 5'PFS GAC 3'PFS AAU (mixed)
RNA 1: CACCCGUGCAAAAUUGCAGGGGUCUAAAACCUUCUCCAAAUUGUUUCAUCCU
RNA 2: GGGAAUGGAUCCACAUCUACGAAUUCGACAGGAUGAAACAAUUUGGAGAAGAAUAGAUCGGAAGAGCACACGU
Kd: 10.7 ± 2.4 nM

B7: target 2 MT 5'PFS AAA 3'PFS CAG (mixed)
RNA 1: CACCCGUGCAAAAUUGCAGGGGUCUAAAACCUUCUCCAAAUUGUUUCAUCCU
RNA 2: GGGAAUGGAUCCACAUCUACGAAUUCAAAAGGAUGAAACAAUUUGGAGAAGCAGAGAUCGGAAGAGCACACGU
Kd: 3.8 ± 0.6 nM

B8: target 2 MT 5'PFS UUU 3'PFS UGC (mixed)
RNA 1: CACCCGUGCAAAAUUGCAGGGGUCUAAAACCUUCUCCAAAUUGUUUCAUCCU
RNA 2: GGGAAUGGAUCCACAUCUACGAAUUCUUUAGGAUGAAACAAUUUGGAGAAGUGCAGAUCGGAAGAGCACACGU
Kd: 5.2 ± 0.4 nM

B9: target 2 MT 5'PFS AAU 3'PFS UAC (mixed)
RNA 1: CACCCGUGCAAAAUUGCAGGGGUCUAAAACCUUCUCCAAAUUGUUUCAUCCU
RNA 2: GGGAAUGGAUCCACAUCUACGAAUUCAAUAGGAUGAAACAAUUUGGAGAAGUACAGAUCGGAAGAGCACACGU
Kd: 9.2 ± 2.1 nM

B10: target 2 MT 5'PFS UCA 3'PFS AGG (mixed)
RNA 1: CACCCGUGCAAAAUUGCAGGGGUCUAAAACCUUCUCCAAAUUGUUUCAUCCU
RNA 2: GGGAAUGGAUCCACAUCUACGAAUUCUCAAGGAUGAAACAAUUUGGAGAAGAGGAGAUCGGAAGAGCACACGU
Kd: 3.3 ± 0.7 nM

B11: target 2 MT 5'PFS AUA 3'PFS AUC (mixed)
RNA 1: CACCCGUGCAAAAUUGCAGGGGUCUAAAACCUUCUCCAAAUUGUUUCAUCCU
RNA 2: GGGAAUGGAUCCACAUCUACGAAUUCAUAAGGAUGAAACAAUUUGGAGAAGAUCAGAUCGGAAGAGCACACGU
Kd: 6.1 ± 0.7 nM

B12: target 2 MT 5'PFS CUU 3'PFS UUC (mixed)
RNA 1: CACCCGUGCAAAAUUGCAGGGGUCUAAAACCUUCUCCAAAUUGUUUCAUCCU
RNA 2: GGGAAUGGAUCCACAUCUACGAAUUCCUUAGGAUGAAACAAUUUGGAGAAGUUCAGAUCGGAAGAGCACACGU
Kd: 9.2 ± 2 nM

B13: target 2 MT 5'PFS AAA 3'PFS CAC (mixed)
RNA 1: CACCCGUGCAAAAUUGCAGGGGUCUAAAACCUUCUCCAAAUUGUUUCAUCCU
RNA 2: GGGAAUGGAUCCACAUCUACGAAUUCAAAAGGAUGAAACAAUUUGGAGAAGCACAGAUCGGAAGAGCACACGU
Kd: 5.4 ± 1.2 nM

B14: target 2 MT 5'PFS UAC 3'PFS ACU (mixed)
RNA 1: CACCCGUGCAAAAUUGCAGGGGUCUAAAACCUUCUCCAAAUUGUUUCAUCCU
RNA 2: GGGAAUGGAUCCACAUCUACGAAUUCUACAGGAUGAAACAAUUUGGAGAAGACUAGAUCGGAAGAGCACACGU
Kd: 9 ± 2.5 nM

B15: target 2 MT 5'PFS GUU 3'PFS UCA (mixed)
RNA 1: CACCCGUGCAAAAUUGCAGGGGUCUAAAACCUUCUCCAAAUUGUUUCAUCCU
RNA 2: GGGAAUGGAUCCACAUCUACGAAUUCGUUAGGAUGAAACAAUUUGGAGAAGUCAAGAUCGGAAGAGCACACGU
Kd: 29 ± 8 nM

B16: target 2 MT 5'PFS GAC 3'PFS AAG (mixed)
RNA 1: CACCCGUGCAAAAUUGCAGGGGUCUAAAACCUUCUCCAAAUUGUUUCAUCCU
RNA 2: GGGAAUGGAUCCACAUCUACGAAUUCGACAGGAUGAAACAAUUUGGAGAAGAAGAGAUCGGAAGAGCACACGU
Kd: 8 ± 0.8 nM

B17: target 2 MT 5'PFS AUA 3'PFS AUU (mixed)
RNA 1: CACCCGUGCAAAAUUGCAGGGGUCUAAAACCUUCUCCAAAUUGUUUCAUCCU
RNA 2: GGGAAUGGAUCCACAUCUACGAAUUCAUAAGGAUGAAACAAUUUGGAGAAGAUUAGAUCGGAAGAGCACACGU
Kd: 5.8 ± 0.8 nM

B18: target 2 MT 5'PFS AGG 3'PFS CAG (mixed)
RNA 1: CACCCGUGCAAAAUUGCAGGGGUCUAAAACCUUCUCCAAAUUGUUUCAUCCU
RNA 2: GGGAAUGGAUCCACAUCUACGAAUUCAGGAGGAUGAAACAAUUUGGAGAAGCAGAGAUCGGAAGAGCACACGU
Kd: 4.8 ± 0.5 nM

B19: target 2 MT 5'PFS AAU 3'PFS UAU (mixed)
RNA 1: CACCCGUGCAAAAUUGCAGGGGUCUAAAACCUUCUCCAAAUUGUUUCAUCCU
RNA 2: GGGAAUGGAUCCACAUCUACGAAUUCAAUAGGAUGAAACAAUUUGGAGAAGUAUAGAUCGGAAGAGCACACGU
Kd: 4.9 ± 0.9 nM

B20: target 2 MT 5'PFS UCA 3'PFS AGA (mixed)
RNA 1: CACCCGUGCAAAAUUGCAGGGGUCUAAAACCUUCUCCAAAUUGUUUCAUCCU
RNA 2: GGGAAUGGAUCCACAUCUACGAAUUCUCAAGGAUGAAACAAUUUGGAGAAGAGAAGAUCGGAAGAGCACACGU
Kd: 7.6 ± 1.8 nM

B21: target 2 MT 5'PFS AUA 3'PFS AUA (mixed)
RNA 1: CACCCGUGCAAAAUUGCAGGGGUCUAAAACCUUCUCCAAAUUGUUUCAUCCU
RNA 2: GGGAAUGGAUCCACAUCUACGAAUUCAUAAGGAUGAAACAAUUUGGAGAAGAUAAGAUCGGAAGAGCACACGU
Kd: 5.2 ± 0.6 nM

B22: target 2 MT 5'PFS GAC 3'PFS AAC (mixed)
RNA 1: CACCCGUGCAAAAUUGCAGGGGUCUAAAACCUUCUCCAAAUUGUUUCAUCCU
RNA 2: GGGAAUGGAUCCACAUCUACGAAUUCGACAGGAUGAAACAAUUUGGAGAAGAACAGAUCGGAAGAGCACACGU
Kd: 11.4 ± 2.3 nM

B23: target 2 MT 5'PFS AUG 3'PFS UUC (mixed)
RNA 1: CACCCGUGCAAAAUUGCAGGGGUCUAAAACCUUCUCCAAAUUGUUUCAUCCU
RNA 2: GGGAAUGGAUCCACAUCUACGAAUUCAUGAGGAUGAAACAAUUUGGAGAAGUUCAGAUCGGAAGAGCACACGU
Kd: 21 ± 4 nM

B24: target 2 MT 5'PFS UCA 3'PFS AGC (mixed)
RNA 1: CACCCGUGCAAAAUUGCAGGGGUCUAAAACCUUCUCCAAAUUGUUUCAUCCU
RNA 2: GGGAAUGGAUCCACAUCUACGAAUUCUCAAGGAUGAAACAAUUUGGAGAAGAGCAGAUCGGAAGAGCACACGU
Kd: 2.68 ± 0.29 nM

B25: target 2 MT 5'PFS UUU 3'PFS UGU (mixed)
RNA 1: CACCCGUGCAAAAUUGCAGGGGUCUAAAACCUUCUCCAAAUUGUUUCAUCCU
RNA 2: GGGAAUGGAUCCACAUCUACGAAUUCUUUAGGAUGAAACAAUUUGGAGAAGUGUAGAUCGGAAGAGCACACGU
Kd: 16 ± 1.8 nM

B26: target 2 MT 5'PFS GGA 3'PFS UGC (mixed)
RNA 1: CACCCGUGCAAAAUUGCAGGGGUCUAAAACCUUCUCCAAAUUGUUUCAUCCU
RNA 2: GGGAAUGGAUCCACAUCUACGAAUUCGGAAGGAUGAAACAAUUUGGAGAAGUGCAGAUCGGAAGAGCACACGU
Kd: 10.5 ± 0.9 nM

B27: target 2 MT 5'PFS AUA 3'PFS AUG (mixed)
RNA 1: CACCCGUGCAAAAUUGCAGGGGUCUAAAACCUUCUCCAAAUUGUUUCAUCCU
RNA 2: GGGAAUGGAUCCACAUCUACGAAUUCAUAAGGAUGAAACAAUUUGGAGAAGAUGAGAUCGGAAGAGCACACGU
Kd: 5.6 ± 0.5 nM

B28: target 2 MT 5'PFS GAC 3'PFS AAA (mixed)
RNA 1: CACCCGUGCAAAAUUGCAGGGGUCUAAAACCUUCUCCAAAUUGUUUCAUCCU
RNA 2: GGGAAUGGAUCCACAUCUACGAAUUCGACAGGAUGAAACAAUUUGGAGAAGAAAAGAUCGGAAGAGCACACGU
Kd: 9.5 ± 1.9 nM
